# Reference: paper PMC12403594, “On the self-assembly of αB-crystallin” (Soft Matter, 2025)
# Legend:
# [1] = biological target: the molecule itself; assay: static light scattering; day 0 (day of thawing and dilution); 10-69 μM αBC; 20 mM sodium phosphate, 0.2 mM EDTA, 0.02% NaN3, pH 8.0; 25 °C; aggregation number from the slope of the excess Rayleigh ratio at q = 0 against concentration
# [2] = biological target: the molecule itself; assay: static light scattering; day 7 after sample preparation; 10-69 μM αBC; 20 mM sodium phosphate, 0.2 mM EDTA, 0.02% NaN3, pH 8.0; 25 °C; aggregation number from the slope of the excess Rayleigh ratio at q = 0 against concentration
protein,measurement,setting,value
"Recombinant human αB-crystallin (natural protein, αB-crystallin, human; expressed from a synthetic gene with E. coli-optimized codons in a Pet3a vector; No tag is mentioned; The introduction gives 175 residues for the protein) MDIAIHHPWIRRPFFPFHSPSRLFDQFFGEHLLESDLFPTSTSLSPFYLRPPSFLRAPSWFDTGLSEMRLEKDRFSVNLDVKHFSPEELKVKVLGDVIEVHGKHEERQDEHGFISREFHRKYRIPADVDPLTITSSLSSDGVLTVNGPRKQVSGPERTIPITREEKPAVTAAPKK",stoichiometry N,[1],24
same,stoichiometry N,[2],19
